Ends that are not written are not given here.
Biological target: T1, Biotinylated junctional peptide Pep21 (PfCSP peptide 21) (Plasmodium falciparum 3D7, UniProt Q7K740, also: biotinylated, position not given here)
T1 construct: Plasmodium falciparum circumsporozoite protein (PfCSP), junctional region, residues 101-115; source: synthetic peptide, bought: Genscript
T1 chain: NPDPNANPNVDPNAN
Assay: BLI; Octet Red384, biotinylated Pep21 on streptavidin biosensors, Fab serially diluted from 1000 to 62.5 nM, 30°C, PBS + 1% BSA, association 60 s, dissociation 180 s, global fit 1:1 Langmuir
Conditions: both partners purified

B1: P3-43 Fab (m43.151 P100K_H) (Fab, V domains shown)
VH: QVHLVQSGAEVKKPGASVKVSCKASGYTFTSYAIHWVRQAPGQRLEWMGWIKGGNGNTRYSQKFQDRVTITRDTSASTAYMELSSLRSEDTAVYYCALLTVITKDDAFDIWGQGTMVTVSS
VL: not shown
notes: as the heavy chain of m5 (PDB 7LKG) with the stated change; own structure deposited here; as the light chain of m5; source: Fab produced from the antibody
Q: For B1, which Kd is on record?
A: The Kd was 8.9 nM.

— PMC12269619, “In silico improvement of affinity for highly protective anti-malarial antibodies” (iScience, 2025)
